Assay results from patent US12735488 (dated 2026).
Residue numbers refer to the chain shown, from its start.

How the values were obtained:
[1] = molecular target: hVISTA-ECD (human); experiment: SPR pH 7.4, low or no binding
[2] = molecular target: hVISTA-ECD (human); experiment: SPR pH 6.45, 37C
[3] = molecular target: hVISTA-ECD (human); experiment: SPR pH 6.0, 37C
[4] = molecular target: hVISTA-ECD (human); experiment: SPR pH 6.45
[5] = molecular target: hVISTA-ECD (human); experiment: SPR pH 7.4, 37C
[6] = molecular target: hVISTA-ECD (human); experiment: SPR pH 6.0, 37C; remark: listed apart in the source
[7] = molecular target: hVISTA-ECD (human); experiment: SPR pH 7.4, 37C; remark: listed apart in the source
[8] = molecular target: hVISTA-ECD (human); experiment: SPR pH 6.9
[9] = molecular target: hVISTA-ECD (human); experiment: SPR pH 6.0, 37C; remark: listed apart in the source
[10] = molecular target: hVISTA-ECD (human); experiment: SPR pH 6.9, 37C
[11] = molecular target: hVISTA-ECD (human); experiment: SPR pH 6.0
[12] = molecular target: hVISTA-ECD (human); experiment: SPR pH 7.4, 37C; remark: listed apart in the source
[13] = molecular target: hVISTA-ECD (human); experiment: SPR pH 6.45, low or no binding
[14] = molecular target: hVISTA-ECD (human); experiment: SPR pH 6.9, low or no binding
[15] = molecular target: hVISTA-ECD (human); experiment: SPR pH 7.4, 37C; remark: listed apart in the source
[16] = molecular target: hVISTA-ECD (human); experiment: SPR pH 6.0, 37C; remark: listed apart in the source

Chain of hVISTA-ECD (human) (chain, as listed by the source): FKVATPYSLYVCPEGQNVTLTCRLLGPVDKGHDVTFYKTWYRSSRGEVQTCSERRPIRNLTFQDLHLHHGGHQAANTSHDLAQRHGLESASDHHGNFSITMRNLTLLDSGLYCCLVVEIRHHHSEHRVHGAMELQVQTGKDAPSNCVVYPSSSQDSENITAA

B1: P1-068767 (antibody, V domains shown)
VH: EVQLVESGGGLVQPGKSLRLSCAASGFTLEDYAMHWVRQAPGKGLEWVSGIDWNSENIGYADSVKGRFTISRDNAKNSLYLQMNSLRTEDTALYYCAKVPGYSGGWIDAEDDWGQGTMVTVSS
VL: not shown
In the case of B1, the binding result [1] is reported as “no binding”, the Kd [2] is reported as 38 nM and the Kd [3] is reported as 7.6 nM. For the same binder, the Kd [4] was 31.8 nM, the Kd [5] was 19000 nM and the Kd [6] was 7.8 nM. The Kd [7] was 19000 nM, the Kd [8] was 385 nM and the Kd [9] was 3.4 nM. The Kd [10] was 400 nM and the Kd [11] was 6.78 nM.

B2: P1-068761 hIgG1f afucosylated (antibody, V domains shown)
VH: B1 VH with Y32E, D52N, N57E, G104H, D112V
VL: not shown
B2 was tested, and the Kd [6] was 4.1 nM and the Kd [7] was 8200 nM.

B3: P1-068769 (antibody, V domains shown)
VH: B1 VH with Y32E, D52N, E56D, N57H
VL: not shown
B3: no binding [12].

B4: P1-068775 (antibody, V domains shown)
VH: B1 VH with Y32E, N57E, G104H
VL: not shown
B4: no binding [12].

B5: P1-070878 (P1-068761_E55A_E56N) (antibody, V domains shown)
VH: B1 VH with Y32E, D52N, E56A, G104H, D112V
VL: not shown
B5: no binding [1].

B6: P1-068773 (antibody, V domains shown)
VH: B1 VH with E56D
VL: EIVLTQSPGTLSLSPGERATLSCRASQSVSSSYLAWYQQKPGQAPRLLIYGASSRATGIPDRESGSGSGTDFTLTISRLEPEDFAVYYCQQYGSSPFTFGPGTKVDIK
Work on B6 yielded a Kd [3] of 9.4 nM.

B7: P1-070904 (P1-068767_E30D) (antibody, V domains shown)
VH: B1 VH with E30D
VL: not shown
B7: no binding [1].

B8: P1-061029 hIgG1f afucosylated (antibody, V domains shown)
VH: B1 VH with E30D, D52N, E56A, E110F, D112V
VL: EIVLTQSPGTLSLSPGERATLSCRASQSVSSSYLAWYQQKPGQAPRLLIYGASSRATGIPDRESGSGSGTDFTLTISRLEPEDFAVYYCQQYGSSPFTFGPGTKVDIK
With B8 the Kd [6] was 6.9 nM and the Kd [7] was 41 nM.

B9: P1-068767 hIgG1f afucosylated (antibody, V domains shown)
VH: B1 VH
VL: not shown
Binder B9 has a Kd [6] of 7.9 nM and a Kd [7] of 24000 nM.

B10: P1-070922 (P1-068767_E30D_E55A) (antibody, V domains shown)
VH: B1 VH with E30D, E56A
VL: not shown
B10: no binding [1].

B11: P1-068759 (antibody, V domains shown)
VH: B1 VH with Y32E
VL: not shown
B11: no binding [13].

B12: P1-068757 (antibody, V domains shown)
VH: B1 VH with Y32E, D52N, N57E
VL: not shown
B12: no binding [14].

B13: P1-070900 (P1-068761_E56N_H100G) (antibody, V domains shown)
VH: B1 VH with Y32E, D52N, D112V
VL: not shown
B13: no binding [1].

B14: P1-068767 hIgG1f (antibody, V domains shown)
VH: B1 VH
VL: not shown
For B14, the Kd [6] was 8 nM and the Kd [7] was 22000 nM.

B15: P1-068765 (antibody, V domains shown)
VH: B1 VH with L29D, D52N, N57E
VL: not shown
B15: no binding [1].

B16: P1-070864 (P1-068761_E30D) (antibody, V domains shown)
VH: B1 VH with E30D, Y32E, D52N, N57E, G104H, D112V
VL: not shown
B16: no binding [1].

B17: P1-068748 (antibody, V domains shown)
VH: QVQLVESGGGVVQPGRSLRLSCAASGFTFSHHAMHWVRQAPGKGLEWVAIIWYDGSNDDYADSVKGRFTISRDNSKNTLYLQMNSLRAEDTAVYYCARDSGFYDSYYFDYWGQGTLVTVSS
VL: EIVLTQSPATLSLSPGERATLSCRASQSVSSSYLAWYQQKPGQAPRLLIYDASNRATGIPARFSGSGSGTDFTLTISSLEPEDFATYYCQQYNSYPYTFGQGTKLEIK
B17: no binding [15].

B18: P1-068771 (antibody, V domains shown)
VH: B1 VH with Y32E, D52N, E56H, N57E
VL: not shown
B18: no binding [12].

B19: P1-068742 (antibody, V domains shown)
VH: B17 VH with H31D, H32Y, N57D, D58K, D104E, S105D
VL: B17 VL
With B19 the koff [16] was over 0.01 s⁻¹.

B20: P1-070890 (P1-068761_E30D_E55A) (antibody, V domains shown)
VH: B1 VH with E30D, Y32E, D52N, E56A, N57E, G104H, D112V
VL: not shown
B20: no binding [1].

B21: P1-070872 (P1-068761_H100G) (antibody, V domains shown)
VH: B1 VH with Y32E, D52N, N57E, D112V
VL: not shown
B21: no binding [1].

B22: P1-068746 (antibody, V domains shown)
VH: B17 VH with H31S, H32Y, D58H, D59H
VL: B17 VL
With B22 the koff [16] was over 0.01 s⁻¹.

B23: P1-068744 (antibody, V domains shown)
VH: B17 VH with H31E, H32Y, I50H, D58K, D59Y, Y60E, D104E, Y110E
VL: B17 VL
B23: no binding [1].

B24: P1-070870 (P1-068761_E56N) (antibody, V domains shown)
VH: B1 VH with Y32E, D52N, G104H, D112V
VL: not shown
B24: no binding [1].

B25: P1-068761 (antibody, V domains shown)
VH: B1 VH with Y32E, D52N, N57E, G104H, D112V
VL: not shown
B25: no binding [1].
